Data from patent US20230002480A1.

How the values were obtained:
Experiment in all cases: cell-based or functional assay
[1] = molecular target: HIV-1 Env of pseudovirus 1006_11_C3_1601 (HIV-1)
[2] = molecular target: HIV-1 Env of pseudovirus 1394C9G1(Rev-) (HIV-1)
[3] = molecular target: HIV-1 Env of pseudovirus 263-8 (HIV-1)
[4] = molecular target: HIV-1 Env of pseudovirus 6244_13_B5_4576 (HIV-1)
[5] = molecular target: HIV-1 Env of pseudovirus 6540.v4.c1 (HIV-1)
[6] = molecular target: HIV-1 Env of pseudovirus 6545.v4.c1 (HIV-1)
[7] = molecular target: HIV-1 Env of pseudovirus 6811.v7.c18 (HIV-1)
[8] = molecular target: HIV-1 Env of pseudovirus 89-F1_2_25 (HIV-1)
[9] = molecular target: HIV-1 Env of pseudovirus 9004SS_A3_4 (HIV-1)
[10] = molecular target: HIV-1 Env of pseudovirus 928-28 (HIV-1)
[11] = molecular target: HIV-1 Env of pseudovirus A07412M1.vrc12 (HIV-1)
[12] = molecular target: HIV-1 Env of pseudovirus BF1266.431a (HIV-1)
[13] = molecular target: HIV-1 Env of pseudovirus BJOX010000.06.2 (HIV-1)
[14] = molecular target: HIV-1 Env of pseudovirus BJOX015000.11.5 (HIV-1)
[15] = molecular target: HIV-1 Env of pseudovirus C4118.c09 (HIV-1)
[16] = molecular target: HIV-1 Env of pseudovirus CNE20 (HIV-1)
[17] = molecular target: HIV-1 Env of pseudovirus CNE30 (HIV-1)
[18] = molecular target: HIV-1 Env of pseudovirus CNE5 (HIV-1)
[19] = molecular target: HIV-1 Env of pseudovirus Ce2060_G9 (HIV-1)
[20] = molecular target: HIV-1 Env of pseudovirus Du422.1 (HIV-1)
[21] = molecular target: HIV-1 Env of pseudovirus MS208.A1 (HIV-1)
[22] = molecular target: HIV-1 Env of pseudovirus P0402_c2_11 (HIV-1)
[23] = molecular target: HIV-1 Env of pseudovirus PVO.4 (HIV-1)
[24] = molecular target: HIV-1 Env of pseudovirus Q769.d22 (HIV-1)
[25] = molecular target: HIV-1 Env of pseudovirus QH0692.42 (HIV-1)
[26] = molecular target: HIV-1 Env of pseudovirus R1166.c01 (HIV-1)
[27] = molecular target: HIV-1 Env of pseudovirus SC05_8C11_2344 (HIV-1)
[28] = molecular target: HIV-1 Env of pseudovirus T257-31 (HIV-1)
[29] = molecular target: HIV-1 Env of pseudovirus T278-50 (HIV-1)
[30] = molecular target: HIV-1 Env of pseudovirus TRJO4551.58 (HIV-1)
[31] = molecular target: HIV-1 Env of pseudovirus WITO4160.33 (HIV-1)
[32] = molecular target: HIV-1 Env of pseudovirus X1632_S2_B10 (HIV-1)
[33] = molecular target: HIV-1 Env of pseudovirus X2131_C1_B5 (HIV-1)
[34] = molecular target: HIV-1 Env of pseudovirus ZM135M.PL10a (HIV-1)
[35] = molecular target: HIV-1 Env of pseudovirus ZM197M.PB7 (HIV-1)
[36] = molecular target: HIV-1 Env of pseudovirus ZM214M.PL15 (HIV-1)
[37] = molecular target: HIV-1 Env of pseudovirus ZM249M.PL1 (HIV-1)

Substance: PGT121 (antibody)
- IC50 [1]: 0.002 µg/mL
- IC80 [1]: 0.007 µg/mL
- IC50 [2]: 0.264 µg/mL
- IC80 [2]: 1.95 µg/mL
- IC50 [3]: 0.648 µg/mL
- IC80 [3]: 3.96 µg/mL
- IC50 [4]: 0.061 µg/mL
- IC80 [4]: 0.347 µg/mL
- IC50 [5]: > 50 µg/mL
- IC80 [5]: > 50 µg/mL
- IC50 [6]: > 50 µg/mL
- IC80 [6]: > 50 µg/mL
- IC50 [7]: < 0.001 µg/mL
- IC80 [7]: 0.001 µg/mL
- IC50 [8]: > 50 µg/mL
- IC80 [8]: > 50 µg/mL
- IC50 [9]: < 0.001 µg/mL
- IC80 [9]: 0.003 µg/mL
- IC50 [10]: 44.2 µg/mL
- IC80 [10]: > 50 µg/mL
- IC50 [11]: 0.009 µg/mL
- IC80 [11]: 0.075 µg/mL
- IC50 [12]: > 50 µg/mL
- IC80 [12]: > 50 µg/mL
- IC50 [13]: > 50 µg/mL
- IC80 [13]: > 50 µg/mL
- IC50 [14]: > 50 µg/mL
- IC80 [14]: > 50 µg/mL
- IC50 [15]: > 50 µg/mL
- IC80 [15]: > 50 µg/mL
- IC50 [16]: < 0.001 µg/mL
- IC80 [16]: 0.002 µg/mL
- IC50 [17]: 0.078 µg/mL
- IC80 [17]: 0.291 µg/mL
- IC50 [18]: > 50 µg/mL
- IC80 [18]: > 50 µg/mL
- IC50 [19]: > 50 µg/mL
- IC80 [19]: > 50 µg/mL
- IC50 [20]: 0.039 µg/mL
- IC80 [20]: 0.143 µg/mL
- IC50 [21]: > 50 µg/mL
- IC80 [21]: > 50 µg/mL
- IC50 [22]: 0.005 µg/mL
- IC50 [23]: 0.098 µg/mL
- IC80 [23]: 0.343 µg/mL
- IC50 [24]: > 50 µg/mL
- IC80 [24]: > 50 µg/mL
- IC50 [25]: 0.302 µg/mL
- IC80 [25]: 2.31 µg/mL
- IC50 [26]: > 50 µg/mL
- IC80 [26]: > 50 µg/mL
- IC50 [27]: 0.019 µg/mL
- IC80 [27]: 0.071 µg/mL
- IC50 [28]: > 50 µg/mL
- IC80 [28]: > 50 µg/mL
- IC50 [29]: > 50 µg/mL
- IC80 [29]: > 50 µg/mL
- IC50 [30]: 1.31 µg/mL
- IC80 [30]: 37.9 µg/mL
- IC50 [31]: 0.334 µg/mL
- IC80 [31]: 2.35 µg/mL
- IC50 [32]: > 50 µg/mL
- IC80 [32]: > 50 µg/mL
- IC50 [33]: 0.004 µg/mL
- IC80 [33]: 0.023 µg/mL
- IC50 [34]: 0.716 µg/mL
- IC80 [34]: 5.25 µg/mL
- IC50 [35]: > 50 µg/mL
- IC80 [35]: > 50 µg/mL
- IC50 [36]: 0.46 µg/mL
- IC80 [36]: 2.04 µg/mL
- IC50 [37]: > 50 µg/mL
- IC80 [37]: > 50 µg/mL

Substance: 8ANC195 (antibody)
- neutralization IC50 [1]: 0.43 µg/mL
- neutralization IC80 [1]: 1.98 µg/mL
- neutralization IC50 [2]: > 50 µg/mL
- neutralization IC80 [2]: > 50 µg/mL
- neutralization IC50 [3]: > 50 µg/mL
- neutralization IC80 [3]: > 50 µg/mL
- neutralization IC50 [4]: > 50 µg/mL
- neutralization IC80 [4]: > 50 µg/mL
- IC50, titer in TZM.bl cells [5]: > 50 µg/mL
- IC80, titer in TZM.bl cells [5]: > 50 µg/mL
- IC50, titer in TZM.bl cells [6]: 26.9 µg/mL
- IC80, titer in TZM.bl cells [6]: > 50 µg/mL
- IC50, titer in TZM.bl cells [7]: 5.34 µg/mL
- IC80, titer in TZM.bl cells [7]: 27.6 µg/mL
- IC50, titer in TZM.bl cells [8]: > 50 µg/mL
- IC80, titer in TZM.bl cells [8]: > 50 µg/mL
- neutralization IC50 [9]: 0.17 µg/mL
- neutralization IC80 [9]: 0.81 µg/mL
- neutralization IC50 [10]: > 50 µg/mL
- neutralization IC80 [10]: > 50 µg/mL
- IC50, titer in TZM.bl cells [11]: 2.25 µg/mL
- IC80, titer in TZM.bl cells [11]: 7.49 µg/mL
- neutralization IC50 [12]: > 50 µg/mL
- neutralization IC80 [12]: > 50 µg/mL
- IC50, titer in TZM.bl cells [13]: 0.85 µg/mL
- IC80, titer in TZM.bl cells [13]: 5.84 µg/mL
- IC50, titer in TZM.bl cells [14]: 0.97 µg/mL
- IC80, titer in TZM.bl cells [14]: 4.3 µg/mL
- IC50, titer in TZM.bl cells [15]: 0.2 µg/mL
- IC80, titer in TZM.bl cells [15]: 0.71 µg/mL
- neutralization IC50 [16]: 0.5 µg/mL
- neutralization IC80 [16]: 3.19 µg/mL
- neutralization IC50 [17]: 7.52 µg/mL
- neutralization IC80 [17]: 40.5 µg/mL
- IC50, titer in TZM.bl cells [18]: 2.12 µg/mL
- IC80, titer in TZM.bl cells [18]: 9.67 µg/mL
- neutralization IC50 [19]: 6.2 µg/mL
- neutralization IC80 [19]: > 50 µg/mL
- neutralization IC50 [20]: > 50 µg/mL
- neutralization IC80 [20]: > 50 µg/mL
- neutralization IC50 [21]: > 50 µg/mL
- neutralization IC80 [21]: > 50 µg/mL
- IC50, titer in TZM.bl cells [22]: 0.62 µg/mL
- IC80, titer in TZM.bl cells [22]: 6.35 µg/mL
- neutralization IC50 [23]: 0.52 µg/mL
- neutralization IC80 [23]: 1.87 µg/mL
- neutralization IC50 [24]: 0.26 µg/mL
- neutralization IC80 [24]: 1.2 µg/mL
- neutralization IC50 [25]: 2.71 µg/mL
- neutralization IC80 [25]: 17.1 µg/mL
- IC50, titer in TZM.bl cells [26]: 4.83 µg/mL
- IC80, titer in TZM.bl cells [26]: 4.83 µg/mL
- neutralization IC50 [27]: 0.47 µg/mL
- neutralization IC80 [27]: 3.06 µg/mL
- neutralization IC50 [28]: 0.32 µg/mL
- neutralization IC80 [28]: 3.89 µg/mL
- IC50, titer in TZM.bl cells [29]: > 50 µg/mL
- IC80, titer in TZM.bl cells [29]: > 50 µg/mL
- neutralization IC50 [30]: 0.19 µg/mL
- neutralization IC80 [30]: 1.17 µg/mL
- neutralization IC50 [31]: > 50 µg/mL
- neutralization IC80 [31]: > 50 µg/mL
- IC50, titer in TZM.bl cells [32]: 0.47 µg/mL
- IC80, titer in TZM.bl cells [32]: 4.11 µg/mL
- IC50, titer in TZM.bl cells [33]: 3.47 µg/mL
- IC80, titer in TZM.bl cells [33]: > 50 µg/mL
- neutralization IC50 [34]: > 50 µg/mL
- neutralization IC80 [34]: > 50 µg/mL
- neutralization IC50 [35]: 23.4 µg/mL
- neutralization IC80 [35]: > 50 µg/mL
- neutralization IC50 [36]: 0.91 µg/mL
- neutralization IC80 [36]: 12.3 µg/mL
- neutralization IC50 [37]: > 50 µg/mL
- neutralization IC80 [37]: > 50 µg/mL
